Experimental findings from paper PMC11835620, “CleanCap M6 inhibits decapping of exogenously delivered IVT mRNA” are described below.

The target in the data set is eIF4E (human, UniProt P06730 1-217). The experiment in a line: EMSA; KD measured but printed only in the figure; higher affinity than M6 3'OMe; EMSA: 25 nM oligo, eIF4E 5 nM to 1.5 uM (2-fold dilutions), 100 mM NaCl, 50 mM Tris-Cl (pH and remaining components cut off in material), temperature not given. The settings on record: protein: recombinant; (stated for spectral shift oligos); single strand.
eIF4E, sequence (P06730 whole entry): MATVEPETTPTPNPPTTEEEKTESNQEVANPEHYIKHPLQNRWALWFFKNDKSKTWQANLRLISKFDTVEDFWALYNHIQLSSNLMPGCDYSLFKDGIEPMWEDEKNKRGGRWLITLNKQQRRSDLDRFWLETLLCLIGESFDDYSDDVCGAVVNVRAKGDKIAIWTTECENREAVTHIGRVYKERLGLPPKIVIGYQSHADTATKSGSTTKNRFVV

B1: AG 3'OH cap 43-mer (ssRNA)
RNA: AGGAAAUAAGAGAGAAAAGAAGAGUAAGAAGAAAUAUAAGAGC
modifications: 5' cap m7GpppA(2'OMe)G; A1 is 2'-O-methyl; cap m7G not in strand
As for B1, the binding result is “binds”.
